Key:
[1] = system: Arabidopsis thaliana (columbia ecotype) plant body; test: full-length cDNA microarray analysis of gene expression levels after environmental stress application; conditions: in vivo
Experimental: In this example, the gene expression levels at the time of application of various types of environmental stresses were analyzed using microarrays. Specifically, the microarrays described in Seki et al., “Monitoring the expression profiles of 7000 Arabidopsis genes under drought, cold, and high-salinity stresses using a full-length cDNA microarray,” Plant J. 31: 279-292, 2002, were used, and analysis was carried out in accordance with the method similar to the method described therein. Various types of environmental stresses were applied to a plant body under the following conditions. Specifically, low-temperature stress application was carried out by introducing a plate containing a plant body into a low-temperature chamber (4° C.). Dehydration stress application was carried out by capturing the plant body with forceps while refraining from damaging the plant body, roughly removing moisture from the plant body on a Kim Towel, placing the plant body on another plate, placing the plate in a clean bench while leaving the lid open, letting it stand for 2 hours, and then closing the lid. Salt stress application was carried out by dispensing a mixture of MS medium (containing 1% sucrose, 0.1% agar, and 1 mM luciferin) with 250 mM NaCl to the roots of the plant bodies (200 μl per plant body) using a Pipetman. ABA stress application was carried out by dispensing a mixture of MS medium (containing 1% sucrose, 0.1% agar, and 1 mM luciferin) with 100 μM ABA to the roots of the plant bodies (200 μl per plant body) using a Pipetman. As a plant body to which environmental stress is to be applied, Arabidopsis thaliana (columbia ecotype), which had been cultivated on a germination medium containing Murashige and Skoog Salt, 3% sucrose, and […] for 3 weeks, was used. Cultivation conditions were determined so as to maintain the temperature in the chamber at 22° C. with a 16-hour light period and an 8-hour dark period. Total RNA was extracted from plant bodies after environmental stress application or from plant bodies to which no environmental stress had been applied using the TRIZOL Reagent (Life Technologies), and mRNA was extracted using the mRNA isolation kit (Militenyi Biotec Auburn). In accordance with the method described in the above article, mRNA samples were reversely transcribed in the presence of Cy3 dUTP or Cy5 dUTP (Amersham Pharmacia). Microarray analysis was carried out using cDNAs obtained via reverse transcription. Data obtained via microarray analysis were analyzed using the Quantarray Version 2.0 (GSI Lumonics).

[2] = system: transgenic Arabidopsis thaliana plant body (luciferase reporter gene); test: luciferase assay of promoter::LUC transgenic plants after environmental stress application; type: in vivo; conditions: for Tissue allowing specific induction: summary over stress types
Experimental: Specifically, promoter regions were isolated from these genes, transgenic plants in which luciferase reporter genes were to be expressed under the control of such promoters were prepared, and tissue specificity of the promoters was inspected via luciferase assay.
In this example, DNA fragments containing promoter regions of the genes identified in Example 1 were recovered via PCR.
The nucleotide sequences of the amplified DNA fragments were determined in accordance with a conventional technique to confirm that mutagenesis, such as substitution or deletion, was not introduced thereinto. After the absence of mutagenesis was confirmed, the recovered DNA fragments were introduced into the vector for promoter analysis (i.e., a vector prepared by introducing the Gateway recombinant sequence (tradename: Gateway Vector Conversion System, Invitrogen) and the luciferase reporter gene into the pGreen vector (Plant Molecular Biology 42: 819-832, 2000)) using the Gateway recombination system to construct a recombinant vector.
The recombinant vector prepared in (1) above was introduced into a plant via Agrobacterium infection. When a gene is introduced via Agrobacterium infection, a process of infecting a plant with Agrobacterium containing a plasmid comprising the target gene construct is necessary. This process was carried out via vacuum infiltration. Specifically, a plant body of Arabidopsis thaliana that had been grown in soil comprising vermiculite and an equivalent amount of pearlite was soaked in a culture solution of Agrobacterium containing the recombinant vector prepared in (1). The resultant was placed in a desiccator, suctioned with a vacuum pump to 65 to 70 mmHg, and then allowed to stand at room temperature for 5 to 10 minutes. The pot was transferred onto a tray, covered with a wrap, and kept moistened. The wrap was removed on the following day, the plant was allowed to grow in that state, and seeds were then harvested.
Subsequently, seeds were sown on MS agar medium to which antibiotic hygromycin has been added in order to select an individual having the recombinant vector prepared in (1). Arabidopsis thaliana that had been grown in this medium was transferred to a pot and allowed to grow therein. Thus, seeds of transgenic plants to which the recombinant vector prepared in (1) has been introduced were obtained.
The seeds of the transgenic plant lineage prepared in (2) were sowed on MS agar medium. The plant body 10 days after sowing was used for luciferase assay.
At the outset, 1 mM luciferin (containing 0.01% Triton-X) was sprayed over the entire plant body 5 times. After the plant body was allowed to stand in the dark for 5 minutes, luciferase luminescence was assayed using ARGUS (assay after treatment for 0 hours). Subsequently, various types of environmental stresses were applied (see below). Low-temperature stress application was carried out by introducing a plate containing a plant body into a low-temperature chamber (4° C.). Dehydration stress application was carried out by capturing the plant body with forceps while refraining from damaging the plant body, roughly removing moisture from the plant body on a Kim Towel, placing the plant body on another plate, placing the plate in a clean bench while leaving the lid open, letting it stand for 2 hours, and then closing the lid. Salt stress application was carried out by dispensing a mixture of MS medium (containing 1% sucrose, 0.1% agar, and 1 mM luciferin) with 250 mM NaCl to the roots of the plant bodies (200 μl per plant body) using a Pipetman. ABA stress application was carried out by dispensing a mixture of MS medium (containing 1% sucrose, 0.1% agar, and 1 mM luciferin) with 100 μM ABA to the roots of the plant bodies (200 μl per plant body) using a Pipetman.
Luciferase luminescence was assayed 2, 5, and 10 hours after the above various types of environmental stresses had been applied using the ARGUS system (Hamamatsu Photonics). […]

Promoter of RAFL05-20-M16: environmental stress responsive promoter DNA, SEQ ID NO: 3, upstream of At2g46680 (ATHB7 transcription factor)
Environmental stress type to which the promoter responds [1]: Dehydration and salt | Tissue in which specific induction of expression is realized ([2]; ABA stress (100 μM ABA)): Root tissue | Tissue in which specific induction of expression is realized ([2]; ABA stress (100 μM ABA), listed as promoter of RAFL05-20-M16): root tissue | time after stress application at which activity to induce gene expression is exhibited ([2]; ABA stress, root tissue): about 2 hours | Tissue in which specific induction of expression is realized ([2]; Dehydration stress): Root tissue | time after stress application at which activity to induce gene expression is exhibited ([2]; Dehydration stress): about 10 hours | Tissue in which specific induction of expression is realized ([2]; Dehydration stress, listed as promoter of RAFL05-20-M16): root tissue | Tissue allowing specific induction [2]: Stem and leaf tissue and root tissue

B1: Promoter of RAFL05-17-B13: environmental stress responsive promoter DNA, SEQ ID NO: 1, upstream of At1g01470 (LEA protein) (nucleic acid, listed as Arabidopsis thaliana)
DNA: CCGCCAACTACCAACACCGACATATGTGCTTTCGGCAGTTTTGATATCATTCCAAAATTTCAATTATTATTTATCAAATTTATTTTCTTGGTAAAAGTTTAATTAATTTCAATTATTTGAATGTCTTAATTCACTGATTACAAATTATATATGTAATATATACATAACAATTTCGTTCGTGGAGTGTTATTATACTCCTTAAGCGAATCTGTATATTTTAAATAAAATTTTGATTTATGCACACGTACATGTTCAATTGAAACGTTTTCCCTAACTATAGATGCCAATAAATAATAAGTTGATTTTTAAAATGTACAAAACAAAAGGTACCGTTTTGTAAAATTTTGCAACCAAAAAGTACAATCGGCCGTTGAAAATCGTGGAACCAAACACTAATTAAAGAGAAGTGTGAATATAATCTAGTGTTTGCGGATTTATATTATAAAATTTGTGTATCACTAAAATGTCAAAGCATGCTTTGACTGGTCAATAAGTCAAATTAACTAACAAACCATGCGAGGCGTAGGTTTGACTTCTTAACATAAATGCTGACTCAGTTTTTCCATTCCGCAGCTGTCGACTAATTGGACACGCTTCTTCCAATCCCTTTCCACTAATCATCCATCAACACGTGACATGCCTACAGTGCACGACTTCACAGTGATCATGTCAAAGTTTTGTTTTTAAGAGAAGAAGATTCACGACTTCACAGTGATCATAGTCCAGTTACAAATTTGAATGGGCTTATGGCCTGTGGCCCATTTAAGTTTGACCTTAATATCCATCAGAAACCCATACCAATACGGGTCATAAGTGCATTGTCCATATAGTGTACCGCAATGCATGGGAGTACTACTACATTCCACCGACGTGCATATGGGGGGACATGGTCGGTCCATTAATCCCTTGCGCATCTTATTCCTTACGCGAATACTTTTCCCTCTTTTAGTTTTGTATAATACTTTCCATTTTTTTGGTATTAAATTTATCGTGTGACTATCTAAAAAGGTATTTAATTATCTAGTTTAGCTATAACTGCAAACAAAATATCTATTTTCATGAATGATATATTTTTGAAATAAAATATTGTTGTCATGTAACGAAAAAATCAAAAATCAAGCAGAAGACACGTATAACCCACGCTTTCACTCTCACTCGTGGAAAACCCTCACACGTACACAAACCATTATAAAATTTAATCCATTTACATCGACCGACTTCATAAGAACATCGTAATCCCATCCGTTTATATATATATTCCAAGTTAAACTTCATATCATACACACAAACCTAAAACACCGAAACAAAAACAAAGAGATTTAAACAAGAAGAGTTATT
Environmental stress type to which the promoter responds [1]: Dehydration and salt | Tissue in which specific induction of expression is realized ([2]; ABA stress (100 μM ABA)): Stem and leaf tissue (weak) | Tissue in which specific induction of expression is realized ([2]; ABA stress (100 μM ABA), listed as promoter of RAFL05-17-B13): weak gene expression in stem and leaf tissue | Tissue in which specific induction of expression is realized ([2]; Dehydration stress): Stem and leaf tissue and root tissue | Tissue in which specific induction of expression is realized ([2]; Dehydration stress, listed as promoter of RAFL05-17-B13): stem and leaf tissue and root tissue | Tissue in which specific induction of expression is realized ([2]; Low temperature stress (4° C.)): Stem and leaf tissue | Tissue in which specific induction of expression is realized ([2]; Low temperature stress (4° C.), listed as promoter of RAFL05-17-B13): stem and leaf tissue | Tissue in which specific induction of expression is realized ([2]; Salt stress (250 mM NaCl)): Stem and leaf tissue | Tissue in which specific induction of expression is realized ([2]; Salt stress (250 mM NaCl), listed as promoter of RAFL05-17-B13): stem and leaf tissue | Tissue allowing specific induction [2]: Stem and leaf tissue and root tissue

Source: US20090282582A1, “ENVIRONMENTAL STRESS RESPONSIVE PROMOTER AND METHOD OF TISSUE-SPECIFIC GENE EXPRESSION USING THE SAME” (RIKEN, priority 2006, published 2009)
